Test results: patent US20020058247A1

Target: … (SEQ. ID. No. 74)
Test: competition EIA, 5 ug HBcAg peptide + 5 ug SEQ 74 peptide on coated HBcAg (competitor); OD of bound SEQ 74 peptide

Substance | OD at 490 nm [OD]
HBcAg peptide … (residues 121-140, Sequence ID 107) | 0.701
HBcAg peptide … (residues 51-70, Sequence ID 100) | 0.646
HBcAg peptide … (residues 151-170, Sequence ID 110) | 0.732
HBcAg peptide … (residues 161-183, Sequence ID 111) | 0.678
HBcAg peptide … (residues 141-160, Sequence ID 109) | 0.811
HBcAg peptide … (residues 111-131 as printed, Sequence ID 106) | 0.832
